Numbered stars: 1 amine (or outer) side, 2 acyl side, 3 side chain; on linkers, the order of the positions; unused ones are H or OH. * marks the point of attachment. C20 diacid = O=C(O)CCCCCCCCCCCCCCCCCCC(=O)*; C18 diacid = O=C(O)CCCCCCCCCCCCCCCCC(=O)*; C16 diacid = O=C(O)CCCCCCCCCCCCCCC(=O)*; γGlu = O=C(O)[C@H](CCC(=O)[*:2])N[*:1]
T1: human calcitonin receptor (human, UniProt P30988 25-474)
T1 sequence (looked up): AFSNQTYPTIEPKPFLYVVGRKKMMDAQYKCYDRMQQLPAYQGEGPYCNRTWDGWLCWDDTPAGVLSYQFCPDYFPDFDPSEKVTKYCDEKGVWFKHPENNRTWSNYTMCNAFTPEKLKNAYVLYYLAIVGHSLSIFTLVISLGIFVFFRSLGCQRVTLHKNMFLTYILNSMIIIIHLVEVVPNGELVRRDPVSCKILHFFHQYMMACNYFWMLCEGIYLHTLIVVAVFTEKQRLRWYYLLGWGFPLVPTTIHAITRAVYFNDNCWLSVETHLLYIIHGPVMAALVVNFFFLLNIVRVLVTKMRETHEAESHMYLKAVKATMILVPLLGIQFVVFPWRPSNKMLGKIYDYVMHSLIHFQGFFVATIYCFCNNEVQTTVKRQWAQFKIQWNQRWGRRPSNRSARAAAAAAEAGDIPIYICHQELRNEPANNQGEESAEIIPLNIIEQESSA

T2: human amylin 3(a) receptor (human calcitonin receptor co-expressed with RAMP-3) (human, UniProt P30988 25-474; O60896 24-148, limits assumed)
T2 sequence (looked up) 1: T1 sequence (looked up)
T2 sequence (looked up) 2: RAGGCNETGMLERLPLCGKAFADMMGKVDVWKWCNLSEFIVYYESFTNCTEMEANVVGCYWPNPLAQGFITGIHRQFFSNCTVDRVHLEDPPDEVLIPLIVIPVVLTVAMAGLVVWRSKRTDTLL

B1: [N-terminal(C18 diacid), 9V, 18A]mimylin (peptide)
peptide: {C18 diacid}-EASELSTAVLGRLSAELAELATLPRTETGPESP-NH2
SMILES: CC(C)C[C@H](NC(=O)[C@H](CCC(=O)O)NC(=O)[C@H](C)NC(=O)[C@H](CO)NC(=O)[C@H](CC(C)C)NC(=O)[C@H](CCCNC(=N)N)NC(=O)CNC(=O)[C@H](CC(C)C)NC(=O)[C@@H](NC(=O)[C@H](C)NC(=O)[C@@H](NC(=O)[C@H](CO)NC(=O)[C@H](CC(C)C)NC(=O)[C@H](CCC(=O)O)NC(=O)[C@H](CO)NC(=O)[C@H](C)NC(=O)[C@H](CCC(=O)O)NC(=O)CCCCCCCCCCCCCCCCC(=O)O)[C@@H](C)O)C(C)C)C(=O)N[C@@H](C)C(=O)N[C@@H](CCC(=O)O)C(=O)N[C@@H](CC(C)C)C(=O)N[C@@H](C)C(=O)N[C@H](C(=O)N[C@@H](CC(C)C)C(=O)N1CCC[C@H]1C(=O)N[C@@H](CCCNC(=N)N)C(=O)N[C@H](C(=O)N[C@@H](CCC(=O)O)C(=O)N[C@H](C(=O)NCC(=O)N1CCC[C@H]1C(=O)N[C@@H](CCC(=O)O)C(=O)N[C@@H](CO)C(=O)N1CCC[C@H]1C(N)=O)[C@@H](C)O)[C@@H](C)O)[C@@H](C)O
B2: [N-terminal(C20 diacid-gGlu), 23Y, 30S, 31G]mimylin (peptide)
peptide: {C20 diacid-γGlu}-EASELSTAALGRLSAELHELATYPRTETGSGSP-NH2
SMILES: CC(C)C[C@H](NC(=O)[C@H](C)NC(=O)[C@H](C)NC(=O)[C@@H](NC(=O)[C@H](CO)NC(=O)[C@H](CC(C)C)NC(=O)[C@H](CCC(=O)O)NC(=O)[C@H](CO)NC(=O)[C@H](C)NC(=O)[C@H](CCC(=O)O)NC(=O)CC[C@H](NC(=O)CCCCCCCCCCCCCCCCCCC(=O)O)C(=O)O)[C@@H](C)O)C(=O)NCC(=O)N[C@@H](CCCNC(=N)N)C(=O)N[C@@H](CC(C)C)C(=O)N[C@@H](CO)C(=O)N[C@@H](C)C(=O)N[C@@H](CCC(=O)O)C(=O)N[C@@H](CC(C)C)C(=O)N[C@@H](Cc1c[nH]cn1)C(=O)N[C@@H](CCC(=O)O)C(=O)N[C@@H](CC(C)C)C(=O)N[C@@H](C)C(=O)N[C@H](C(=O)N[C@@H](Cc1ccc(O)cc1)C(=O)N1CCC[C@H]1C(=O)N[C@@H](CCCNC(=N)N)C(=O)N[C@H](C(=O)N[C@@H](CCC(=O)O)C(=O)N[C@H](C(=O)NCC(=O)N[C@@H](CO)C(=O)NCC(=O)N[C@@H](CO)C(=O)N1CCC[C@H]1C(N)=O)[C@@H](C)O)[C@@H](C)O)[C@@H](C)O
B3: [N-terminal(C18 diacid-gGlu), des1, 30S, 31P]mimylin (peptide)
peptide: {C18 diacid-γGlu}-ASELSTAALGRLSAELHELATLPRTETGSPSP-NH2
SMILES: CC(C)C[C@H](NC(=O)[C@H](C)NC(=O)[C@H](C)NC(=O)[C@@H](NC(=O)[C@H](CO)NC(=O)[C@H](CC(C)C)NC(=O)[C@H](CCC(=O)O)NC(=O)[C@H](CO)NC(=O)[C@H](C)NC(=O)CC[C@H](NC(=O)CCCCCCCCCCCCCCCCC(=O)O)C(=O)O)[C@@H](C)O)C(=O)NCC(=O)N[C@@H](CCCNC(=N)N)C(=O)N[C@@H](CC(C)C)C(=O)N[C@@H](CO)C(=O)N[C@@H](C)C(=O)N[C@@H](CCC(=O)O)C(=O)N[C@@H](CC(C)C)C(=O)N[C@@H](Cc1c[nH]cn1)C(=O)N[C@@H](CCC(=O)O)C(=O)N[C@@H](CC(C)C)C(=O)N[C@@H](C)C(=O)N[C@H](C(=O)N[C@@H](CC(C)C)C(=O)N1CCC[C@H]1C(=O)N[C@@H](CCCNC(=N)N)C(=O)N[C@H](C(=O)N[C@@H](CCC(=O)O)C(=O)N[C@H](C(=O)NCC(=O)N[C@@H](CO)C(=O)N1CCC[C@H]1C(=O)N[C@@H](CO)C(=O)N1CCC[C@H]1C(N)=O)[C@@H](C)O)[C@@H](C)O)[C@@H](C)O
B4: [N-terminal(C18 diacid), 5V, 9V, 20V]mimylin (peptide)
peptide: {C18 diacid}-EASEVSTAVLGRLSAELHEVATLPRTETGPESP-NH2
SMILES: CC(C)C[C@H](NC(=O)[C@H](CCCNC(=N)N)NC(=O)CNC(=O)[C@H](CC(C)C)NC(=O)[C@@H](NC(=O)[C@H](C)NC(=O)[C@@H](NC(=O)[C@H](CO)NC(=O)[C@@H](NC(=O)[C@H](CCC(=O)O)NC(=O)[C@H](CO)NC(=O)[C@H](C)NC(=O)[C@H](CCC(=O)O)NC(=O)CCCCCCCCCCCCCCCCC(=O)O)C(C)C)[C@@H](C)O)C(C)C)C(=O)N[C@@H](CO)C(=O)N[C@@H](C)C(=O)N[C@@H](CCC(=O)O)C(=O)N[C@@H](CC(C)C)C(=O)N[C@@H](Cc1c[nH]cn1)C(=O)N[C@@H](CCC(=O)O)C(=O)N[C@H](C(=O)N[C@@H](C)C(=O)N[C@H](C(=O)N[C@@H](CC(C)C)C(=O)N1CCC[C@H]1C(=O)N[C@@H](CCCNC(=N)N)C(=O)N[C@H](C(=O)N[C@@H](CCC(=O)O)C(=O)N[C@H](C(=O)NCC(=O)N1CCC[C@H]1C(=O)N[C@@H](CCC(=O)O)C(=O)N[C@@H](CO)C(=O)N1CCC[C@H]1C(N)=O)[C@@H](C)O)[C@@H](C)O)[C@@H](C)O)C(C)C
B5: [N-terminal(C18 diacid), 3P, 4P, 9V]mimylin (peptide)
peptide: {C18 diacid}-EAPPLSTAVLGRLSAELHELATLPRTETGPESP-NH2
SMILES: CC(C)C[C@H](NC(=O)[C@H](CCC(=O)O)NC(=O)[C@H](Cc1c[nH]cn1)NC(=O)[C@H](CC(C)C)NC(=O)[C@H](CCC(=O)O)NC(=O)[C@H](C)NC(=O)[C@H](CO)NC(=O)[C@H](CC(C)C)NC(=O)[C@H](CCCNC(=N)N)NC(=O)CNC(=O)[C@H](CC(C)C)NC(=O)[C@@H](NC(=O)[C@H](C)NC(=O)[C@@H](NC(=O)[C@H](CO)NC(=O)[C@H](CC(C)C)NC(=O)[C@@H]1CCCN1C(=O)[C@@H]1CCCN1C(=O)[C@H](C)NC(=O)[C@H](CCC(=O)O)NC(=O)CCCCCCCCCCCCCCCCC(=O)O)[C@@H](C)O)C(C)C)C(=O)N[C@@H](C)C(=O)N[C@H](C(=O)N[C@@H](CC(C)C)C(=O)N1CCC[C@H]1C(=O)N[C@@H](CCCNC(=N)N)C(=O)N[C@H](C(=O)N[C@@H](CCC(=O)O)C(=O)N[C@H](C(=O)NCC(=O)N1CCC[C@H]1C(=O)N[C@@H](CCC(=O)O)C(=O)N[C@@H](CO)C(=O)N1CCC[C@H]1C(N)=O)[C@@H](C)O)[C@@H](C)O)[C@@H](C)O
B6: [N-terminal(C18 diacid), 9V, 12K, 25K]mimylin (peptide)
peptide: {C18 diacid}-EASELSTAVLGKLSAELHELATLPKTETGPESP-NH2
SMILES: CC(C)C[C@H](NC(=O)[C@H](CCC(=O)O)NC(=O)[C@H](Cc1c[nH]cn1)NC(=O)[C@H](CC(C)C)NC(=O)[C@H](CCC(=O)O)NC(=O)[C@H](C)NC(=O)[C@H](CO)NC(=O)[C@H](CC(C)C)NC(=O)[C@H](CCCCN)NC(=O)CNC(=O)[C@H](CC(C)C)NC(=O)[C@@H](NC(=O)[C@H](C)NC(=O)[C@@H](NC(=O)[C@H](CO)NC(=O)[C@H](CC(C)C)NC(=O)[C@H](CCC(=O)O)NC(=O)[C@H](CO)NC(=O)[C@H](C)NC(=O)[C@H](CCC(=O)O)NC(=O)CCCCCCCCCCCCCCCCC(=O)O)[C@@H](C)O)C(C)C)C(=O)N[C@@H](C)C(=O)N[C@H](C(=O)N[C@@H](CC(C)C)C(=O)N1CCC[C@H]1C(=O)N[C@@H](CCCCN)C(=O)N[C@H](C(=O)N[C@@H](CCC(=O)O)C(=O)N[C@H](C(=O)NCC(=O)N1CCC[C@H]1C(=O)N[C@@H](CCC(=O)O)C(=O)N[C@@H](CO)C(=O)N1CCC[C@H]1C(N)=O)[C@@H](C)O)[C@@H](C)O)[C@@H](C)O
B7: [N-terminal(C18 diacid), 5I, 9I, 10I]mimylin (peptide)
peptide: {C18 diacid}-EASEISTAIIGRLSAELHELATLPRTETGPESP-NH2
SMILES: CC[C@H](C)[C@H](NC(=O)[C@H](C)NC(=O)[C@@H](NC(=O)[C@H](CO)NC(=O)[C@@H](NC(=O)[C@H](CCC(=O)O)NC(=O)[C@H](CO)NC(=O)[C@H](C)NC(=O)[C@H](CCC(=O)O)NC(=O)CCCCCCCCCCCCCCCCC(=O)O)[C@@H](C)CC)[C@@H](C)O)C(=O)N[C@H](C(=O)NCC(=O)N[C@@H](CCCNC(=N)N)C(=O)N[C@@H](CC(C)C)C(=O)N[C@@H](CO)C(=O)N[C@@H](C)C(=O)N[C@@H](CCC(=O)O)C(=O)N[C@@H](CC(C)C)C(=O)N[C@@H](Cc1c[nH]cn1)C(=O)N[C@@H](CCC(=O)O)C(=O)N[C@@H](CC(C)C)C(=O)N[C@@H](C)C(=O)N[C@H](C(=O)N[C@@H](CC(C)C)C(=O)N1CCC[C@H]1C(=O)N[C@@H](CCCNC(=N)N)C(=O)N[C@H](C(=O)N[C@@H](CCC(=O)O)C(=O)N[C@H](C(=O)NCC(=O)N1CCC[C@H]1C(=O)N[C@@H](CCC(=O)O)C(=O)N[C@@H](CO)C(=O)N1CCC[C@H]1C(N)=O)[C@@H](C)O)[C@@H](C)O)[C@@H](C)O)[C@@H](C)CC

target: T1, human calcitonin receptor; assay: cell-based or functional assay

Binder	hCTR funct. EC50 (pM)
B1	7
B2	14
B3	8
{C16 diacid}-EASELSTAALGRLSAELHELATLPRTETGPESP-NH2 [[N-terminal(C16 diacid)]mimylin]	4
B4	54
{C20 diacid-γGlu}-ASELSTAALGRLSAELHELATLPRTETGSGSP-NH2 [[N-terminal(C20 diacid-gGlu), des1, 30S, 31G]mimylin]	14
B5	6
B6	8
B7	5

target: T2, human amylin 3(a) receptor (human …); assay: cell-based or functional assay

Binder	hAmylin-R funct. EC50 (pM)
B1	8
B2	12
B3	13
{C16 diacid}-EASELSTAALGRLSAELHELATLPRTETGPESP-NH2 [[N-terminal(C16 diacid)]mimylin]	8
B4	23
{C20 diacid-γGlu}-ASELSTAALGRLSAELHELATLPRTETGSGSP-NH2 [[N-terminal(C20 diacid-gGlu), des1, 30S, 31G]mimylin]	13
B5	12
B6	16
B7	10
